# Reference: publication PMC4650826
# Values joined by “and” are separate entries in the source; they are usually repeats but may differ in a detail not shown here. Equal entries are not always repeated.
# What was measured:
# [1] = target: Hcp1 (hemolysin-coregulated protein 1) of Burkholderia pseudomallei, recombinant wildtype (B. pseudomallei); test: dynamic light scattering; 8 mg/mL; apparent molecular weight in solution
# [2] = target: Hcp1 (hemolysin-coregulated protein 1) of Burkholderia pseudomallei, recombinant wildtype (B. pseudomallei); test: AUC
substance,measurement,setting,value
"Hcp1 (hemolysin-coregulated protein 1) of Burkholderia pseudomallei, recombinant wildtype (natural protein)",stoichiometry N,[1],12
same,stoichiometry N,[2],6 and 12
